# ± gives the standard deviation of the averaged measurements.
# Test: total protein half-life in vivo (active degradation + dilution); higher = more stable protein
# [1] = E. coli NCM3722 delta-clpP delta-lon delta-hslV, growth: N-lim chemostat, doubling time 6 h
# [2] = E. coli NCM3722 delta-lon, growth: N-lim chemostat, doubling time 6 h
# [3] = E. coli NCM3722 delta-smpB, growth: N-lim chemostat, doubling time 6 h
# [4] = wild type E. coli NCM3722, growth: C-lim chemostat, doubling time 3 h
# [5] = wild type E. coli NCM3722, growth: C-lim chemostat, doubling time 6 h
# [6] = wild type E. coli NCM3722, growth: C-lim chemostat, doubling time 12 h
# [7] = wild type E. coli NCM3722, growth: P-lim chemostat, doubling time 6 h
# [8] = wild type E. coli NCM3722, growth: P-lim chemostat, doubling time 12 h
# [9] = E. coli NCM3722 delta-clpP, growth: N-lim chemostat, doubling time 6 h
# [10] = E. coli NCM3722 delta-hslV, growth: N-lim chemostat, doubling time 6 h
# [11] = wild type E. coli NCM3722, growth: N-lim chemostat, doubling time 6 h
# [12] = wild type E. coli NCM3722, growth: N-lim chemostat, doubling time 12 h
Sequence,total protein half-life in vivo [1] [h],total protein half-life in vivo [2] [h],total protein half-life in vivo [3] [h],total protein half-life in vivo [4] [h],total protein half-life in vivo [5] [h],total protein half-life in vivo [6] [h],total protein half-life in vivo [7] [h],total protein half-life in vivo [8] [h],total protein half-life in vivo [9] [h],total protein half-life in vivo [10] [h],total protein half-life in vivo [11] [h],total protein half-life in vivo [12] [h]
MKRPNFLFVMTDTQATNMVGCYSGKPLNTQNIDSLAAEGIRFNSAYTCSPVCTPARAGLFTGIYANQSGPWTNNVAPGKNISTMGRYFKDAGYHTCYIGKWHLDGHDYFGTGECPPEWDADYWFDGANYLSELTEKEISLWRNGLNSVEDLQANHIDETFTWAHRISNRAVDFLQQPARADEPFLMVVSYDEPHHPFTCPVEYLEKYADFYYELGEKAQDDLANKPEHHRLWAQAMPSPVGDDGLYHHPLYFACNDFVDDQIGRVINALTPEQRENTWVIYTSDHGEMMGAHKLISKGAAMYDDITRIPLIIRSPQGERRQVDTPVSHIDLLPTMMALADIEKPEILPGENILAVKEPRGVMVEFNRYEIEHDSFGGFIPVRCWVTDDFKLVLNLFTSDELYDRRNDPNEMHNLIDDIRFADVRSKMHDALLDYMDKIRDPFRSYQWSLRPWRKDARPRWMGAFRPRPQDGYSPVVRDYDTGLPTQGVKVEEKKQKF,5.62,3.1,2,2.28,4.35 ± 0.17,7.04 ± 0.66,4.04,8.72 ± 5.3,,,,
MKRSLLFSAVLCAASLTSVHAAQPITEPEFASDIVDRYADHIFYGSGATGMALVVIDGNQRVFRSYGETRPGNNVRPQLDSVVRIASLTKLMTSEMLVKLLDQGTVKLNDPLSKYAPPGARVPTYNGTPITLVNLATHTSALPREQPGGAAHRPVFVWPTREQRWKYLSTAKLKAAPGSQAAYSNLAFDLLADALANASGKPYTQLFEEQITRPLGMKDTTYTPSPDQCRRLMVAERGASPCNNTLAAIGSGGVYSTPGDMMRWMQQYLSSDFYQRSNQADRMQTLIYQRAQFTKVIGMDVPGKADALGLGWVYMAPKEGRPGIIQKTGGGGGFITYMAMIPQKNIGAFVVVTRSPLTRFKNMSDGINDLVTELSGNKPLVIPAS [P0AD70],3.75 ± 0.98,3.68 ± 0.084,3.17 ± 0.11,1.96 ± 0.34,3.73 ± 0.71,5.69 ± 1.3,3.62 ± 0.42,6.14 ± 1.1,2.49 ± 0.33,3.37 ± 0.26,3.96 ± 1,5.33 ± 0.35
MKRVSQMTALAMALGLACASSWAAELAKPLTLDQLQQQNGKAIDTRPSAFYNGWPQTLNGPSGHELAALNLSASWLDKMSTEQLNAWIKQHNLKTDAPVALYGNDKDVDAVKTRLQKAGLTHISILSDALSEPSRLQKLPHFEQLVYPQWLHDLQQGKEVTAKPAGDWKVIEAAWGAPKLYLISHIPGADYIDTNEVESEPLWNKVSDEQLKAMLAKHGIRHDTTVILYGRDVYAAARVAQIMLYAGVKDVRLLDGGWQTWSDAGLPVERGTPPKVKAEPDFGVKIPAQPQLMLDMEQARGLLHRQDASLVSIRSWPEFIGTTSGYSYIKPKGEIAGARWGHAGSDSTHMEDFHNPDGTMRSADDITAMWKAWNIKPEQQVSFYCGTGWRASETFMYARAMGWKNVSVYDGGWYEWSSDPKNPVATGERGPDSSK,5.98 ± 1.8,6.48 ± 0.13,6.47 ± 0.44,3.2 ± 0.56,6.183 ± 0.011,12.3 ± 0.77,6.19 ± 0.064,14.4 ± 0.58,6.55 ± 1.7,6.79 ± 0.81,6.69 ± 1.1,13 ± 1.9
MKSALKKSVVSTSISLILASGMAAFAAHAADDVKLKATKTNVAFSDFTPTEYSTKGKPNIIVLTMDDLGYGQLPFDKGSFDPKTMENREVVDTYKIGIDKAIEAAQKSTPTLLSLMDEGVRFTNGYVAHGVSGPSRAAIMTGRAPARFGVYSNTDAQDGIPLTETFLPELFQNHGYYTAAVGKWHLSKISNVPVPEDKQTRDYHDNFTTFSAEEWQPQNRGFDYFMGFHAAGTAYYNSPSLFKNRERVPAKGYISDQLTDEAIGVVDRAKTLDQPFMLYLAYNAPHLPNDNPAPDQYQKQFNTGSQTADNYYASVYSVDQGVKRILEQLKKNGQYDNTIILFTSDNGAVIDGPLPLNGAQKGYKSQTYPGGTHTPMFMWWKGKLQPGNYDKLISAMDFYPTALDAADISIPKDLKLDGVSLLPWLQDKKQGEPHKNLTWITSYSHWFDEENIPFWDNYHKFVRHQSDDYPHNPNTEDLSQFSYTVRNNDYSLVYTVENNQLGLYKLTDLQQKDNLAAANPQVVKEMQGVVREFIDSSQPPLSEVNQEKFNNIKKALSEAK,,,,2.86 ± 0.07,5.43 ± 0.41,,5 ± 0.63,,,,7.26,6.32
MKSATSAQRPYQEVGAMIRDLIIKTPYNPGERLPPEREIAEMLDVTRTVVREALIMLEIKGLVEVRRGAGIYVLDNSGSQNTDSPDANVCNDAGPFELLQARQLLESNIAEFAALQATREDIVKMRQALQLEERELASSAPGSSESGDMQFHLAIAEATHNSMLVELFRQSWQWRENNPMWIQLHSHLDDSLYRKEWLGDHKQILAALIKKDARAAKLAMWQHLENVKQRLLEFSNVDDIYFDGYLFDSWPLDKVDA,4.94 ± 0.91,3.04 ± 0.38,2.82 ± 0.23,2.21 ± 0.16,3.86 ± 0.058,5.88 ± 0.11,3.22 ± 0.098,5.72 ± 0.14,4.94 ± 0.29,2.75 ± 0.15,2.83,3.494 ± 0.022
MKSEVLSVKEKIGYGMGDAASHIIFDNVMLYMMFFYTDIFGIPAGFVGTMFLVARALDAISDPCMGLLADRTRSRWGKFRPWVLFGALPFGIVCVLAYSTPDLSMNGKMIYAAITYTLLTLLYTVVNIPYCALGGVITNDPTQRISLQSWRFVLATAGGMLSTVLMMPLVNLIGGDNKPLGFQGGIAVLSVVAFMMLAFCFFTTKERVEAPPTTTSMREDLRDIWQNDQWRIVGLLTIFNILAVCVRGGAMMYYVTWILGTPEVFVAFLTTYCVGNLIGSALAKPLTDWKCKVTIFWWTNALLAVISLAMFFVPMQASITMFVFIFVIGVLHQLVTPIQWVMMSDTVDYGEWCNGKRLTGISFAGTLFVLKLGLAFGGALIGWMLAYGGYDAAEKAQNSATISIIIALFTIVPAICYLLSAIIAKRYYSLTTHNLKTVMEQLAQGKRRCQQQFTSQEVQN,3.79 ± 0.88,2.68,,2.83 ± 0.12,4.26 ± 0.11,8.19 ± 1.7,5.34 ± 0.062,9.79 ± 1.1,2.71 ± 0.12,2.34 ± 0.037,2.823 ± 0.011,4.72
MKSGRFIGVMSGTSLDGVDVVLATIDEHRVAQLASLSWPIPVSLKQAVLDICQGQQLTLSQFGQLDTQLGQLFADAVNALLKEQNLQARDIVAIGCHGQTVWHEPTGVAPHTLQIGDNNQIVARTGITVVGDFRRRDIALGGQGAPLVPAFHHALLAHPTERRMVLNIGGIANLSLLIPGQPVGGYDTGPGNMLMDAWIWRQAGKPYDKDAEWARAGKVILPLLQNMLSDPYFSQPAPKSTGREYFNYGWLERHLRHFPGVDPRDVQATLAELTAVTISEQVLLSGGCERLMVCGGGSRNPLLMARLAALLPGTEVTTTDAVGISGDDMEALAFAWLAWRTLAGLPGNLPSVTGASQETVLGAIFPANP,4.58 ± 0.37,5.78 ± 1.9,3.88 ± 0.11,3.34 ± 0.54,5.7 ± 0.078,9.74 ± 0.51,5.87 ± 0.47,12.9 ± 0.95,4.32 ± 0.2,3.98 ± 0.065,4.03 ± 0.26,7.18 ± 0.17
MKSILIEKPNQLAIVEREIPTPSAGEVRVKVKLAGICGSDSHIYRGHNPFAKYPRVIGHEFFGVIDAVGEGVESARVGERVAVDPVVSCGHCYPCSIGKPNVCTTLAVLGVHADGGFSEYAVVPAKNAWKIPEAVADQYAVMIEPFTIAANVTGHGQPTENDTVLVYGAGPIGLTIVQVLKGVYNVKNVIVADRIDERLEKAKESGADWAINNSQTPLGEIFTEKGIKPTLIIDAACHPSILKEAVTLASPAARIVLMGFSSEPSEVIQQGITGKELSIFSSRLNANKFPIVIDWLSKGLIKPEKLITHTFDFQHVADAISLFEQDQKHCCKVLLTFSE,3.84 ± 0.53,,2.11,2.26 ± 0.28,3.455 ± 0.03,8.98 ± 3.8,4.75,7.18,,,2.37,
MKSKDTLKWFPAQLPEVRIILGDAVVEVAKQGRPINTRTLLDYIEGNIKKTSWLDNKELLQTAISVLKDNQNLNGKM,,,2.39,,,4.92,,,,,,
MKSKVLALLIPALLAAGAAHAAEVYNKDGNKLDLYGKVDGLHYFSDNSAKDGDQSYARLGFKGETQINDQLTGYGQWEYNIQANNTESSKNQSWTRLAFAGLKFADYGSFDYGRNYGVMYDIEGWTDMLPEFGGDSYTNADNFMTGRANGVATYRNTDFFGLVNGLNFAVQYQGNNEGASNGQEGTNNGRDVRHENGDGWGLSTTYDLGMGFSAGAAYTSSDRTNDQVNHTAAGGDKADAWTAGLKYDANNIYLATMYSETRNMTPFGDSDYAVANKTQNFEVTAQYQFDFGLRPAVSFLMSKGRDLHAAGGADNPAGVDDKDLVKYADIGATYYFNKNMSTYVDYKINLLDEDDSFYAANGISTDDIVALGLVYQF,,,,3.6,6.9,11.9,,,,,,

# From the supplement of paper PMC11246515
